According to patent US20220332836A1, “A METHOD FOR PREVENTING HUMAN VIRUS ASSOCIATED DISORDERS IN PATIENTS” (NOVARTIS AG, priority 2019, published 2022):

Legend:
non-human primate CD40 = test: Binding to non-human primate CD40
Description: (§1) mAb1 binds to human CD40 with high affinity (Kd of 0.3 nM).

human leukocytes = test: rCD154-induced activation of human leukocytes; format: cell-based
Description: as §1

PBMC = test: Induction of PBMC proliferation; format: cell-based
Description: as §1

CD40 [1] = target: T1, CD40 (Macaca mulatta, UniProt A0ACM8QRX8); test: KLH / tetanus toxoid immunization in rhesus monkeys; format: in vivo
T1 construct: CD40 occupancy by mAb1 at plasma concentrations >40 μg/mL; endogenous in cells; host or cells: rhesus monkeys (in vivo)
Description: In a PK/PD study in cynomolgus monkeys, the inflection point (about 10 μg/mL) in the PK profiles was associated with a drop of CD40 saturation, as determined in an independent lymphocyte target saturation assay. As such this inflection point is viewed as a marker for the level of saturation of CD40, and an evidence for target engagement. […] Monkeys were immunized with KLH three times (the first was about 3 weeks prior to dosing, the second was 2 weeks after mAb1 administration, and the third was after complete wash-out of mAb1). […]

CD40 [2] = target: T2, CD40 (Homo sapiens, UniProt P25942); test: Phase 1 single-ascending dose study in healthy subjects and rheumatoid arthritis patients; format: in vivo; conditions: for safety and tolerability: interim
T2 construct: CD40 occupancy on peripheral B cells measuring free CD40 and total CD40; endogenous in cells; host or cells: peripheral / whole blood B cells of healthy subjects and rheumatoid arthritis patients (in vivo)
Description: The safety, tolerability, PK and PD activity of mAb1 are being assessed in an ongoing, randomized, double-blind, placebo-controlled, single-ascending dose study of mAb1 in healthy subjects and patients with rheumatoid arthritis (RA). A total of 48 subjects have been enrolled: 36 healthy subjects who received single doses of mAb1 up to 3 mg/kg IV or S.C., and 12 patients with RA, 6 of whom received single doses of mAb1 at 10 mg/kg IV. […] An investigation of the 30 mg/kg IV dose is ongoing in RA patients. As this study is still ongoing, all clinical data are preliminary in nature and based on interim analyses conducted up to a dose of 10 mg/kg in RA patients.
In healthy subjects as well as in patients with rheumatoid arthritis, after single IV or SC administration, CFZ533 PK profiles were consistent with target mediated disposition resulting in non-linear PK profiles and more rapid clearance when CD40 receptor occupancy dropped below approximately 90%. […]

[3] = tested on: PBMC incubated with EBV supernatant; test: EBV regression assay with PBMC; format: cell-based, human
Description: Buffy coats from six healthy volunteers (18-001 to 18-006) were received from Blutspendezentrum Bern. Peripheral blood mononuclear cells (PBMC) were isolated using LeucoSep tubes following manufacturer's instructions, counted with TC20 and adjusted in cell culture medium (Medium, buffers and reagents). All conditions (see Table 3-2) were run in five replicates in 96-well U-bottom plates and contained 2×10^5 cells/well. PBMC were incubated for 10-15 minutes at 37° C. before adding cell culture medium containing EBV-supernatant and transferrin (see Medium, buffers and reagents). […] Cell pellets were stained and analyzed by flow cytometry (FACS staining procedure).
In FIG. 1, the gating strategy is shown.

[4] = tested on: NK cell-depleted PBMC cultures; test: EBV regression assay, complete or NK cell-depleted PBMC; format: cell-based, human; conditions: 14 days
From the text: (§2) FIG. 16 provides CD3^+ T cell counts from the NK cell-depleted PBMC regression assay after 14 days of culture measured by flow cytometry. Antibodies (in μg/mL) and CsA (in μM) were given in combination with EBV supernatants (except the negative control=medium w/o EBV). Dotted horizontal line was set to the condition ‘medium+EBV’. Data are shown as mean+SEM (n=4).
as §2, with “17” for “16”, “CD19^+ B cell counts from the PBMC regression assay after 14 days of culture measured by flow cytometry. Antibodies (in μg/mL) and CsA (in μM) were given in combination with EBV supernatants (except the negative control=medium w/o EBV). Dotted horizontal line was set to the condition ‘medium+EBV’. Data are shown as mean+SEM (n=4); and CD19^+ B” for “CD3^+ T”
All conditions except ‘medium w/o EBV’ were incubated with EBV supernatant and respective compound or antibodies. […] Looking at the CD19+ B cell proliferation (FIG. 3), there was an obvious increase in CD19+ B cell counts when PBMC were incubated with EBV supernatant compared to PBMC cultured with medium only (medium w/o EBV). […]

EBV infections = test: Clinical kidney transplantation data; format: in vivo, human; conditions: CNI-free therapy in kidney transplantation
whole blood cultures = whole blood cultures incubated for three days (Ristov 2018); cited from earlier work
kidney allografts = conditions: cited from earlier work
[5] = single dose of 3 mg/kg (IV and SC)
[6] = 14 days, CsA 0.1, 1 μM, Belatacept 10, 50 μg/mL, CFZ533, hIgG1 10-200 μg/mL, vs medium+EBV

T2 sequence (P25942 21-277): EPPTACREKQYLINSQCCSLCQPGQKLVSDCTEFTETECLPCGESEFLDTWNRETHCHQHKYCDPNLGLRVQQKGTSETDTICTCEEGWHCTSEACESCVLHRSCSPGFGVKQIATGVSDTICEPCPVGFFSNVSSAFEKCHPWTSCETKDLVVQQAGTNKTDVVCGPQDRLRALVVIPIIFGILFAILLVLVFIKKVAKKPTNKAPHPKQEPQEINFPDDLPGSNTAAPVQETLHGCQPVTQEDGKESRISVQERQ
T1 sequence (A0ACM8QRX8 21-278): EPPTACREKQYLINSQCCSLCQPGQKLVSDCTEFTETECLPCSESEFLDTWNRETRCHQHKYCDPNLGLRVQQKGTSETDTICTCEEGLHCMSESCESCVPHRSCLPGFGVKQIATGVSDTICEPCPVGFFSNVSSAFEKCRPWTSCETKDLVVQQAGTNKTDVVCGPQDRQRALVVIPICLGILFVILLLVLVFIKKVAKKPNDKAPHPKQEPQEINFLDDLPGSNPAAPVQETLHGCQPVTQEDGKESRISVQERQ

Substance: CFZ533: fully human monoclonal Fc-silent, non-depleting anti-CD40 antibody (IgG1/K); heavy chain SEQ ID NO: 9, light chain SEQ ID NO: 10
- affinity for human and non-human primate CD40 (non-human primate CD40): very similar affinities
- rCD154-induced activation of human leukocytes (human leukocytes): inhibits
- induction of PBMC proliferation (PBMC): does not induce
- plasma concentration at which CD40 occupancy completely prevented recall antibody responses (CD40 [1]; at the time of the second KLH vaccination): > 40 µg/mL
- response to the third KLH (CD40 [1]; once mAb1 was cleared): full memory antibody response
- disposition in Chinese subjects versus non-Chinese subjects (CD40 [2]; 3 mg/kg IV): generally similar
- duration of target engagement (CD40 [2]; 3 mg/kg IV): about 4 weeks
- duration of target engagement (CD40 [2]; 3 mg/kg SC): about 4 weeks
- time of peak plasma concentration post-dose (CD40 [2]; 3 mg/kg SC, healthy subjects): 3 days
- duration of full CD40 occupancy (CD40 [2]; 10 mg/kg IV, rheumatoid arthritis patients): 8 weeks
- duration of target engagement (CD40 [2]; 30 mg/kg IV, rheumatoid arthritis patients): 16 weeks
- decrease in total CD40 on peripheral B cells (CD40 [2]; healthy subjects): about 50%
- rCD154-induced CD69 expression on B cells (CD40 [2]; human whole blood, during full CD40 occupancy): generally suppressed
- extent of exposure (AUClast) versus dose (CD40 [2]; human, in vivo): increased more than the increase in dose
- plasma concentration associated with full (>90%) CD40 occupancy on whole blood B cells (CD40 [2]; human, in vivo): 0.3 to 0.4 µg/mL
- decrease in total CD40 on peripheral B cells (CD40 [2]; patients with rheumatoid arthritis): not confirmed
- safety and tolerability (CD40 [2]; single 10 mg/kg, RA patients): safe and well tolerated
- CD40 receptor occupancy below which clearance is more rapid (CD40 [2]; single IV or SC administration): approximately 90%
- safety in Phase 1 study CCFZ533×2101 (CD40 [2]; single ascending doses 0.03 to 30 mg/kg i.v. and 3 mg/kg s.c.): did not reveal major safety concern
- anti-KLH responses to the first KLH immunization (CD40 [2]; [5]): transiently suppressed
- duration of full (>90%) receptor occupancy with anti-KLH suppression (CD40 [2]; [5]): 3-4 weeks
- safety and tolerability (CD40 [2]; single doses up to 3 mg/kg, healthy volunteers): safe and well tolerated
- EBV control in vitro [3]: does not impair
- CD3+ T cell counts [3, 6]: did not had any effect
- CD19+ B cell counts [3, 6]: decrease
- CD19+ B cell counts [4]: decrease in CD19+ B cell counts compared to isotype control independently of NK cells
- increased incidence of EBV infections (EBV infections): not observed
- effect on platelet aggregation (platelet aggregation): mild inhibitory effects
- induction of platelet aggregation responses (platelet aggregation): does not induce
- ADCC (whole blood cultures): no ADCC
- peripheral B cell depletion (kidney allografts; in vivo): no significant peripheral B cell depletion
- survival of kidney allografts (kidney allografts; non-human primates): can prolong survival
